Source: the RNAGym collection of RNA variant scans (doi:10.7554/elife.80360)

B1: Hammerhead Ribozyme (parent)
chain: ACCGGAUGUGCUUUCCGGUCUGAUGAGUCCGUGAGGACGAAACAG

Variants of: B1
Test: self-cleavage, relative activity (ratio to wild type); higher = more cleavage; co-transcriptional

| Variant | self-cleavage |
| --- | --- |
| ACCGGAUGUGCUUUCCGGACUAAUGAGUCCGUGAGGACGAAACAG | 0.346 |
| ACCGGAUGUGCGUUCCGGUCUGAUGAGUCCGUGCGGACGAAACAG | 0.841 |
| ACCGGAUGUGCUUUCCGUUCUGAUGAGUCCGUUAGGACGAAACAG | 0.705 |
| ACCGGGUGUGCUUUCCGGUCUGAAGAGUCCGUGAGGACGAAACAG | 0.597 |
| ACCGGAAGUGCUUUCCGGUCUGAUGAGUACGUGAGGACGAAACAG | 0.511 |
| UCCGGAUGUGCUUUCCGGUCUGAUGAGUCCGUAAGGACGAAACAG | 0.651 |
| ACCGGAUGUUCUUUCCGGUCGGAUGAGUCCGUGAGGACGAAACAG | 0.578 |
| ACCGGAUGUGCUUUCCGGUCUGAUGAGCCCGUGAGGACGCAACAG | 0.44 |
| ACCGGAUGUGCUUUUCGGUCUGAUGCGUCCGUGAGGACGAAACAG | 0.424 |
| ACCGGGUGUGCUUUCCGGUCUGAUGAGUUCGUGAGGACGAAACAG | 0.89 |
| ACCGGAUGUGCUUUCCGGUCUGAAGAGUCCGUGAGGACGAAACAU | 0.832 |
| ACCGGAUGUGCUUUCCGGUCUGAUGAAUCCGUGAGGACGAAACAG | 0.897 |
| ACCGGAUGUGCUUUCCGGUCUUAUGAGUCCGGGAGGACGAAACAG | 0.299 |
| ACCGGAUGUGCUUUCCGGUCUGAUGAGUCAGUGAGGAGGAAACAG | 0.48 |
| ACCGGAUGUGCUUUCCGGUCUGAUGAGUCCGUGAGAACGCAACAG | 0.319 |
| ACCGGAUGUGCUUUCCGGUCGGAUGAGUUCGUGAGGACGAAACAG | 0.471 |
| ACCGGUUGUGCUUUCCGGUCUGAUGAGGCCGUGAGGACGAAACAG | 0.373 |
| ACCGGAUGUGCUUUCCGGGCUGAUGAGUCCGUGAGGACGAAACAA | 0.424 |
| ACCGGAUGUGCUUUCCGGUCUGAUGAGUGCGUGAGGACGAAACAC | 0.371 |

| Variant | self-cleavage |
| --- | --- |
| ACGGAAUGUGCUUUCCGGUCUGAUGAGUCCGUGAGGACGAAACAG | 0.57 |
| ACCCGAUGUGCUUUCCGGUCUGAUGAGUCCGUGAGGACGAAACUG | 0.34 |
| ACCGGAUGGGCUUUUCGGUCUGAUGAGUCCGUGAGGACGAAACAG | 0.842 |
| ACCGGAUGGGCUUUACGGUCUGAUGAGUCCGUGAGGACGAAACAG | 0.758 |
| ACCGGAUGUGCUUUCCGAUCUGAUGAGGCCGUGAGGACGAAACAG | 0.542 |
| UCAGGAUGUGCUUUCCGGUCUGAUGAGUCCGUGAGGACGAAACAG | 0.767 |
| ACCGGAUGUGCUUUCCGUUCUGAUGAGUGCGUGAGGACGAAACAG | 0.575 |
| ACCGGAUGUGCUUUUCGGUCUGAUGAGUCCGUGAGAACGAAACAG | 0.734 |
| ACCGGAGGUGCUUUCCGGUCUGAUGAGUCCGUGAGGUCGAAACAG | 0.683 |
| ACCGGAUGUGCUUUCCGGGCUGAUGAGUCCAUGAGGACGAAACAG | 0.553 |
| ACCGGAUGGGCUUUCCGGUCUGAUGAGUCCGUGAGUACGAAACAG | 0.569 |
| ACCGGAAGUGCUUUCCGGUCUGAUGAGUCCGUCAGGACGAAACAG | 1.44 |
| ACCGGAGGUGCUUUCCGGUCUGCUGAGUCCGUGAGGACGAAACAG | 0.243 |
| ACCGGAUGUGCUUUCCGGUCUGAUGAGUCCCUGAGGACGAAAUAG | 0.436 |
| ACCGGAUGUUCUUUCCGGUCUGAUGAGUACGUGAGGACGAAACAG | 0.658 |
| ACCGGAUGUGCUUUCCGGUCUGACGAGUCCGUGUGGACGAAACAG | 0.824 |
| ACCGGAUGUGCUUUCCGGUCUGACGAGUCCGUGAGGACGACACAG | 0.305 |
| ACCGGAUGUGCUGUCCGUUCUGAUGAGUCCGUGAGGACGAAACAG | 0.701 |
| ACCGGAUGUGCUUUCCGGCCUGAGGAGUCCGUGAGGACGAAACAG | 0.552 |

| Variant | self-cleavage |
| --- | --- |
| ACCGGAUGUGCUUUCCGGUCUGAUGAGUCCGUGAGUACGAACCAG | 0.37 |
| ACCGGAUGUGCUUACCGGUCUGAUGAGUCCGUGACGACGAAACAG | 0.654 |
| ACCGGAUGUGAUUUCCGGUCCGAUGAGUCCGUGAGGACGAAACAG | 0.848 |
| ACCGGAUGUGCUUUCCGGUCUGAUGAGACCGUGAGUACGAAACAG | 0.438 |
| ACCGGAUGUGCUUUCCUGUCUGAUGAGUCCCUGAGGACGAAACAG | 0.86 |
| ACGGGAUGUGCUUUCCGGUCUGAUGAGUCCGUGAGGACGAAACGG | 0.667 |
| ACCGGAUGUGCUUUCCGGUCUGAUGAGGCCGUGAGGAGGAAACAG | 0.542 |
| UCCGGAUGUGCUUUCCGGUCUGAUGAGUCCGUGAGGACGACACAG | 0.378 |
| ACCGGAUGUGCUUUCCGGUCUGGUGACUCCGUGAGGACGAAACAG | 0.285 |
| ACCGGAUGUGCUUUCCGGUCUGGUGAAUCCGUGAGGACGAAACAG | 0.297 |
| GCCGGAUGUUCUUUCCGGUCUGAUGAGUCCGUGAGGACGAAACAG | 1.99 |
| ACCGGAUGUGCUUUCCGGUCUGUUGAGUCCGUGAGGUCGAAACAG | 0.272 |
| ACCGGAUGUGCUUUCCGAUCUGAUGAGUCCGUGAGGACGAAACCG | 0.479 |
| ACCGGAUGUGCUUUCCGGUCUGAUGAGUCCGAGAGCACGAAACAG | 0.37 |
| ACCGGAUGUGCUUUCCGGUAUGAUGAGUACGUGAGGACGAAACAG | 0.382 |
| ACCGGAUGUGCUUUCCGGUCGGAUGAGUCCGUGAGGACGAAUCAG | 0.36 |
| ACCGGAUGCGCUUUCCGGACUGAUGAGUCCGUGAGGACGAAACAG | 0.286 |
| AGCGGAUGUGCUUGCCGGUCUGAUGAGUCCGUGAGGACGAAACAG | 0.309 |
| ACCGGAUGUGCUUUCCGGUGUGAUGAGUCAGUGAGGACGAAACAG | 0.335 |
